{
  "source": "patent US20170209564A1",
  "binders": {"B1": {"name": "CR6261 (antibody, V domains shown)", "VH": "EVQLVESGAEVKKPGSSVKVSCKASGGPFRSYAISWVRQAPGQGPEWMGGIIPIFGTTKYAPKFQGRVTITADDFAGTVYMELSSLRSEDTAMYYCAKHMGYQVRETMDVWGKGTTVTVSS", "VL": "QSVLTQPPSVSAAPGQKVTISCSGSSSNIGNDYVSWYQQLPGTAPKLLIYDNNKRPSGIPDRFSGSKSGTSATLGITGLQTGDEANYYCATWDRRPTAYVVFGGGTKLTVLG"}},
  "settings_in_all_cases": "remark: other sources report otherwise",
  "key": {"74H9": {"target": "74H9", "experiment": "ELISA, coated CR6261, HEK293F medium"}, "127H1": {"target": "127H1", "experiment": "ELISA, coated CR6261, HEK293F medium"}, "56F4": {"target": "56F4", "experiment": "ELISA, coated CR6261, P. pastoris medium"}, "55G7": {"target": "55G7", "experiment": "ELISA, coated CR6261, P. pastoris medium"}, "71D3": {"target": "71D3", "experiment": "ELISA, coated CR6261, P. pastoris medium"}, "75H8": {"target": "75H8", "experiment": "ELISA, coated CR6261, P. pastoris medium"}, "51G3": {"target": "51G3", "experiment": "ELISA, coated CR6261, P. pastoris medium"}, "96G5": {"target": "96G5", "experiment": "ELISA, coated CR6261, P. pastoris medium"}, "86G3": {"target": "86G3", "experiment": "ELISA, coated CR6261, P. pastoris medium"}, "55H2": {"target": "55H2", "experiment": "ELISA, coated CR6261, P. pastoris medium"}, "76D10": {"target": "76D10", "experiment": "ELISA, coated CR6261, P. pastoris medium"}, "69G8": {"target": "69G8", "experiment": "ELISA, coated CR6261, P. pastoris medium"}, "7A7": {"target": "7A7", "experiment": "ELISA, coated CR6261, P. pastoris medium"}, "84D3": {"target": "84D3", "experiment": "ELISA, coated CR6261, P. pastoris medium"}, "86G2": {"target": "86G2", "experiment": "ELISA, coated CR6261, P. pastoris medium"}, "74D7": {"target": "74D7", "experiment": "ELISA, coated CR6261, P. pastoris medium"}, "69D2": {"target": "69D2", "experiment": "ELISA, coated CR6261, P. pastoris medium"}, "4C1": {"target": "4C1", "experiment": "ELISA, coated CR6261, P. pastoris medium"}, "2D9": {"target": "2D9", "experiment": "ELISA, coated CR6261, P. pastoris medium"}, "48D11": {"target": "48D11", "experiment": "ELISA, coated CR6261, P. pastoris medium"}, "12C6": {"target": "12C6", "experiment": "ELISA, coated CR6261, P. pastoris medium"}, "86H9": {"target": "86H9", "experiment": "ELISA, coated CR6261, P. pastoris medium"}, "84E10": {"target": "84E10", "experiment": "ELISA, coated CR6261, P. pastoris medium"}, "60A2": {"target": "60A2", "experiment": "ELISA, coated CR6261, P. pastoris medium"}, "58C8": {"target": "58C8", "experiment": "ELISA, coated CR6261, P. pastoris medium"}, "75G5": {"target": "75G5", "experiment": "ELISA, coated CR6261, P. pastoris medium"}, "67C11": {"target": "67C11", "experiment": "ELISA, coated CR6261, P. pastoris medium"}, "58A11": {"target": "58A11", "experiment": "ELISA, coated CR6261, P. pastoris medium"}, "80F10": {"target": "80F10", "experiment": "ELISA, coated CR6261, P. pastoris medium"}, "71E7": {"target": "71E7", "experiment": "ELISA, coated CR6261, P. pastoris medium"}, "61A9": {"target": "61A9", "experiment": "ELISA, coated CR6261, P. pastoris medium"}, "11B4": {"target": "11B4", "experiment": "ELISA, coated CR6261, P. pastoris medium"}, "91C8": {"target": "91C8", "experiment": "ELISA, coated CR6261, P. pastoris medium"}, "91F10": {"target": "91F10", "experiment": "ELISA, coated CR6261, P. pastoris medium"}, "50G10": {"target": "50G10", "experiment": "ELISA, coated CR6261, P. pastoris medium"}, "79D5": {"target": "79D5", "experiment": "ELISA, coated CR6261, P. pastoris medium"}, "48B11": {"target": "48B11", "experiment": "ELISA, coated CR6261, P. pastoris medium"}, "86B4": {"target": "86B4", "experiment": "ELISA, coated CR6261, P. pastoris medium"}, "53G10": {"target": "53G10", "experiment": "ELISA, coated CR6261, P. pastoris medium"}, "66C8": {"target": "66C8", "experiment": "ELISA, coated CR6261, P. pastoris medium"}, "26H1": {"target": "26H1", "experiment": "ELISA, coated CR6261, P. pastoris medium"}, "51G10": {"target": "51G10", "experiment": "ELISA, coated CR6261, P. pastoris medium"}, "97G10": {"target": "97G10", "experiment": "ELISA, coated CR6261, P. pastoris medium"}, "96A7": {"target": "96A7", "experiment": "ELISA, coated CR6261, P. pastoris medium"}, "10F9": {"target": "10F9", "experiment": "ELISA, coated CR6261, P. pastoris medium"}, "6A1": {"target": "6A1", "experiment": "ELISA, coated CR6261, P. pastoris medium"}, "58A5": {"target": "58A5", "experiment": "ELISA, coated CR6261, P. pastoris medium"}, "35H3": {"target": "35H3", "experiment": "ELISA, coated CR6261, P. pastoris medium"}},
  "data": [
    {"binder": "B1", "values": [
      {"measurement": "CR6261 binding signal", "setting": "74H9", "result": "2.61e+07"},
      {"measurement": "CR6261 binding signal", "setting": "127H1", "result": "2.42e+07"},
      {"measurement": "CR6261 binding signal", "setting": "56F4", "result": 186000},
      {"measurement": "CR6261 binding signal", "setting": "55G7", "result": 616000},
      {"measurement": "CR6261 binding signal", "setting": "71D3", "result": "1.57e+06"},
      {"measurement": "CR6261 binding signal", "setting": "75H8", "result": 103000},
      {"measurement": "CR6261 binding signal", "setting": "51G3", "result": 460000},
      {"measurement": "CR6261 binding signal", "setting": "96G5", "result": 108000},
      {"measurement": "CR6261 binding signal", "setting": "86G3", "result": 184000},
      {"measurement": "CR6261 binding signal", "setting": "55H2", "result": 58100},
      {"measurement": "CR6261 binding signal", "setting": "76D10", "result": 114000},
      {"measurement": "CR6261 binding signal", "setting": "69G8", "result": 481000},
      {"measurement": "CR6261 binding signal", "setting": "7A7", "result": 988000},
      {"measurement": "CR6261 binding signal", "setting": "84D3", "result": 84400},
      {"measurement": "CR6261 binding signal", "setting": "86G2", "result": 69700},
      {"measurement": "CR6261 binding signal", "setting": "74D7", "result": 359000},
      {"measurement": "CR6261 binding signal", "setting": "69D2", "result": 446000},
      {"measurement": "CR6261 binding signal", "setting": "4C1", "result": 386000},
      {"measurement": "CR6261 binding signal", "setting": "2D9", "result": 316000},
      {"measurement": "CR6261 binding signal", "setting": "48D11", "result": 121000},
      {"measurement": "CR6261 binding signal", "setting": "12C6", "result": 289000},
      {"measurement": "CR6261 binding signal", "setting": "86H9", "result": 457000},
      {"measurement": "CR6261 binding signal", "setting": "84E10", "result": 255000},
      {"measurement": "CR6261 binding signal", "setting": "60A2", "result": 92700},
      {"measurement": "CR6261 binding signal", "setting": "58C8", "result": 277000},
      {"measurement": "CR6261 binding signal", "setting": "75G5", "result": "1.01e+06"},
      {"measurement": "CR6261 binding signal", "setting": "67C11", "result": 209000},
      {"measurement": "CR6261 binding signal", "setting": "58A11", "result": 53300},
      {"measurement": "CR6261 binding signal", "setting": "80F10", "result": 90900},
      {"measurement": "CR6261 binding signal", "setting": "71E7", "result": 203000},
      {"measurement": "CR6261 binding signal", "setting": "61A9", "result": 383000},
      {"measurement": "CR6261 binding signal", "setting": "11B4", "result": 166000},
      {"measurement": "CR6261 binding signal", "setting": "91C8", "result": 334000},
      {"measurement": "CR6261 binding signal", "setting": "91F10", "result": 14800},
      {"measurement": "CR6261 binding signal", "setting": "50G10", "result": 264000},
      {"measurement": "CR6261 binding signal", "setting": "79D5", "result": 703000},
      {"measurement": "CR6261 binding signal", "setting": "48B11", "result": 303000},
      {"measurement": "CR6261 binding signal", "setting": "86B4", "result": "1.08e+06"},
      {"measurement": "CR6261 binding signal", "setting": "53G10", "result": 108000},
      {"measurement": "CR6261 binding signal", "setting": "66C8", "result": 185000},
      {"measurement": "CR6261 binding signal", "setting": "26H1", "result": 79700},
      {"measurement": "CR6261 binding signal", "setting": "51G10", "result": 215000},
      {"measurement": "CR6261 binding signal", "setting": "97G10", "result": 253000},
      {"measurement": "CR6261 binding signal", "setting": "96A7", "result": 83300},
      {"measurement": "CR6261 binding signal", "setting": "10F9", "result": 166000},
      {"measurement": "CR6261 binding signal", "setting": "6A1", "result": 300000},
      {"measurement": "CR6261 binding signal", "setting": "58A5", "result": 90700},
      {"measurement": "CR6261 binding signal", "setting": "35H3", "result": 106000}
    ]}
  ]
}
